Experiment [1] concerns the target T1, human amylin 3(a) receptor (human calcitonin receptor co-expressed with RAMP-3) (human, UniProt P30988 25-474; O60896 24-148, limits assumed).
T1 sequence (looked up) 1: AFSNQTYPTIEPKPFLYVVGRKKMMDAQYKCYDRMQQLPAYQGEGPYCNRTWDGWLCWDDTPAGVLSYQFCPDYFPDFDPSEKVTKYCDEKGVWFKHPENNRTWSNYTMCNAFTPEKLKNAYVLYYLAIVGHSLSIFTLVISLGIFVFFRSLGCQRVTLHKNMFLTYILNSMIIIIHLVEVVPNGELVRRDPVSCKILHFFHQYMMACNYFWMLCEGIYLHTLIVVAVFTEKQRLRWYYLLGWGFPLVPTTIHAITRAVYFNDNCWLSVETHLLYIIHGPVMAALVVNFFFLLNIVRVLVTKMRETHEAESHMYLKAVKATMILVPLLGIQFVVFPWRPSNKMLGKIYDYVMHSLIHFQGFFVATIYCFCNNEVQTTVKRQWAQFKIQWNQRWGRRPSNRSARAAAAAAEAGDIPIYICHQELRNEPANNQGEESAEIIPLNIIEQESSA
T1 sequence (looked up) 2: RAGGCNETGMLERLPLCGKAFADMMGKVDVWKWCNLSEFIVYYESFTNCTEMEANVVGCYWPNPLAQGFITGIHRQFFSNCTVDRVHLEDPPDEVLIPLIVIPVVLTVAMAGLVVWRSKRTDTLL
The experiment in a line: cell-based or functional assay.

For experiment [2], the target named is T2, human calcitonin receptor (human, UniProt P30988 25-474).
T2 sequence (looked up): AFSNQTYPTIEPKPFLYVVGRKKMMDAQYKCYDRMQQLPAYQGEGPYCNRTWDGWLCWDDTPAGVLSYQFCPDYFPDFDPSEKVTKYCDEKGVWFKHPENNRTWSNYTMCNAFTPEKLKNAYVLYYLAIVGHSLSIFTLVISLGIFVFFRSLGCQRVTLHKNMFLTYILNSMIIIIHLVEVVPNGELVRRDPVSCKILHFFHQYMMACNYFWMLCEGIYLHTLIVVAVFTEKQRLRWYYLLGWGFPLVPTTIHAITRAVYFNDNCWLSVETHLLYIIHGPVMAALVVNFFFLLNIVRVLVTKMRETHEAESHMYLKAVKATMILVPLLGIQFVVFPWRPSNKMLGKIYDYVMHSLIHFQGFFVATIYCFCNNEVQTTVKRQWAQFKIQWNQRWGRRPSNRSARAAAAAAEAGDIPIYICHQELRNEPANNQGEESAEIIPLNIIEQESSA
Briefly: cell-based or functional assay.

* marks the point of attachment. C18 diacid = O=C(O)CCCCCCCCCCCCCCCCC(=O)*

B1: [N-terminal(C18 diacid), 9V, 10I]mimylin (peptide)
peptide: {C18 diacid}-EASELSTAVIGRLSAELHELATLPRTETGPESP-NH2
SMILES: CC[C@H](C)[C@H](NC(=O)[C@@H](NC(=O)[C@H](C)NC(=O)[C@@H](NC(=O)[C@H](CO)NC(=O)[C@H](CC(C)C)NC(=O)[C@H](CCC(=O)O)NC(=O)[C@H](CO)NC(=O)[C@H](C)NC(=O)[C@H](CCC(=O)O)NC(=O)CCCCCCCCCCCCCCCCC(=O)O)[C@@H](C)O)C(C)C)C(=O)NCC(=O)N[C@@H](CCCNC(=N)N)C(=O)N[C@@H](CC(C)C)C(=O)N[C@@H](CO)C(=O)N[C@@H](C)C(=O)N[C@@H](CCC(=O)O)C(=O)N[C@@H](CC(C)C)C(=O)N[C@@H](Cc1c[nH]cn1)C(=O)N[C@@H](CCC(=O)O)C(=O)N[C@@H](CC(C)C)C(=O)N[C@@H](C)C(=O)N[C@H](C(=O)N[C@@H](CC(C)C)C(=O)N1CCC[C@H]1C(=O)N[C@@H](CCCNC(=N)N)C(=O)N[C@H](C(=O)N[C@@H](CCC(=O)O)C(=O)N[C@H](C(=O)NCC(=O)N1CCC[C@H]1C(=O)N[C@@H](CCC(=O)O)C(=O)N[C@@H](CO)C(=O)N1CCC[C@H]1C(N)=O)[C@@H](C)O)[C@@H](C)O)[C@@H](C)O
In the case of B1, in experiment [1], the “hAmylin-R funct. EC50 (pM)” value stood at 7 pM. Moreover, the “hCTR funct. EC50 (pM)” value in experiment [2] worked out at 6 pM.

B2: [N-terminal(C18 diacid)]mimylin (peptide)
peptide: {C18 diacid}-EASELSTAALGRLSAELHELATLPRTETGPESP-NH2
SMILES: CC(C)C[C@H](NC(=O)[C@H](C)NC(=O)[C@H](C)NC(=O)[C@@H](NC(=O)[C@H](CO)NC(=O)[C@H](CC(C)C)NC(=O)[C@H](CCC(=O)O)NC(=O)[C@H](CO)NC(=O)[C@H](C)NC(=O)[C@H](CCC(=O)O)NC(=O)CCCCCCCCCCCCCCCCC(=O)O)[C@@H](C)O)C(=O)NCC(=O)N[C@@H](CCCNC(=N)N)C(=O)N[C@@H](CC(C)C)C(=O)N[C@@H](CO)C(=O)N[C@@H](C)C(=O)N[C@@H](CCC(=O)O)C(=O)N[C@@H](CC(C)C)C(=O)N[C@@H](Cc1c[nH]cn1)C(=O)N[C@@H](CCC(=O)O)C(=O)N[C@@H](CC(C)C)C(=O)N[C@@H](C)C(=O)N[C@H](C(=O)N[C@@H](CC(C)C)C(=O)N1CCC[C@H]1C(=O)N[C@@H](CCCNC(=N)N)C(=O)N[C@H](C(=O)N[C@@H](CCC(=O)O)C(=O)N[C@H](C(=O)NCC(=O)N1CCC[C@H]1C(=O)N[C@@H](CCC(=O)O)C(=O)N[C@@H](CO)C(=O)N1CCC[C@H]1C(N)=O)[C@@H](C)O)[C@@H](C)O)[C@@H](C)O
As to B2, the “hAmylin-R funct. EC50 (pM)” value in experiment [1] was 8 pM. Further, in experiment [2], the “hCTR funct. EC50 (pM)” value worked out at 5 pM.

B3: [N-terminal(C18 diacid), 5I, 9I]mimylin (peptide)
peptide: {C18 diacid}-EASEISTAILGRLSAELHELATLPRTETGPESP-NH2
SMILES: CC[C@H](C)[C@H](NC(=O)[C@H](C)NC(=O)[C@@H](NC(=O)[C@H](CO)NC(=O)[C@@H](NC(=O)[C@H](CCC(=O)O)NC(=O)[C@H](CO)NC(=O)[C@H](C)NC(=O)[C@H](CCC(=O)O)NC(=O)CCCCCCCCCCCCCCCCC(=O)O)[C@@H](C)CC)[C@@H](C)O)C(=O)N[C@@H](CC(C)C)C(=O)NCC(=O)N[C@@H](CCCNC(=N)N)C(=O)N[C@@H](CC(C)C)C(=O)N[C@@H](CO)C(=O)N[C@@H](C)C(=O)N[C@@H](CCC(=O)O)C(=O)N[C@@H](CC(C)C)C(=O)N[C@@H](Cc1c[nH]cn1)C(=O)N[C@@H](CCC(=O)O)C(=O)N[C@@H](CC(C)C)C(=O)N[C@@H](C)C(=O)N[C@H](C(=O)N[C@@H](CC(C)C)C(=O)N1CCC[C@H]1C(=O)N[C@@H](CCCNC(=N)N)C(=O)N[C@H](C(=O)N[C@@H](CCC(=O)O)C(=O)N[C@H](C(=O)NCC(=O)N1CCC[C@H]1C(=O)N[C@@H](CCC(=O)O)C(=O)N[C@@H](CO)C(=O)N1CCC[C@H]1C(N)=O)[C@@H](C)O)[C@@H](C)O)[C@@H](C)O
For B3, the “hAmylin-R funct. EC50 (pM)” value in experiment [1] turned out to be 10 pM. The “hCTR funct. EC50 (pM)” value in experiment [2] is 7 pM.

B4: [N-terminal(C18 diacid), 5V, 9V]mimylin (peptide)
peptide: {C18 diacid}-EASEVSTAVLGRLSAELHELATLPRTETGPESP-NH2
SMILES: CC(C)C[C@H](NC(=O)[C@H](CCC(=O)O)NC(=O)[C@H](Cc1c[nH]cn1)NC(=O)[C@H](CC(C)C)NC(=O)[C@H](CCC(=O)O)NC(=O)[C@H](C)NC(=O)[C@H](CO)NC(=O)[C@H](CC(C)C)NC(=O)[C@H](CCCNC(=N)N)NC(=O)CNC(=O)[C@H](CC(C)C)NC(=O)[C@@H](NC(=O)[C@H](C)NC(=O)[C@@H](NC(=O)[C@H](CO)NC(=O)[C@@H](NC(=O)[C@H](CCC(=O)O)NC(=O)[C@H](CO)NC(=O)[C@H](C)NC(=O)[C@H](CCC(=O)O)NC(=O)CCCCCCCCCCCCCCCCC(=O)O)C(C)C)[C@@H](C)O)C(C)C)C(=O)N[C@@H](C)C(=O)N[C@H](C(=O)N[C@@H](CC(C)C)C(=O)N1CCC[C@H]1C(=O)N[C@@H](CCCNC(=N)N)C(=O)N[C@H](C(=O)N[C@@H](CCC(=O)O)C(=O)N[C@H](C(=O)NCC(=O)N1CCC[C@H]1C(=O)N[C@@H](CCC(=O)O)C(=O)N[C@@H](CO)C(=O)N1CCC[C@H]1C(N)=O)[C@@H](C)O)[C@@H](C)O)[C@@H](C)O
Take B4: in experiment [1], the “hAmylin-R funct. EC50 (pM)” value came out at 20 pM. Further, the “hCTR funct. EC50 (pM)” value in experiment [2] turned out to be 14 pM.

B5: [N-terminal(C18 diacid), 2P, 9V]mimylin (peptide)
peptide: {C18 diacid}-EPSELSTAVLGRLSAELHELATLPRTETGPESP-NH2
SMILES: CC(C)C[C@H](NC(=O)[C@H](CCC(=O)O)NC(=O)[C@H](Cc1c[nH]cn1)NC(=O)[C@H](CC(C)C)NC(=O)[C@H](CCC(=O)O)NC(=O)[C@H](C)NC(=O)[C@H](CO)NC(=O)[C@H](CC(C)C)NC(=O)[C@H](CCCNC(=N)N)NC(=O)CNC(=O)[C@H](CC(C)C)NC(=O)[C@@H](NC(=O)[C@H](C)NC(=O)[C@@H](NC(=O)[C@H](CO)NC(=O)[C@H](CC(C)C)NC(=O)[C@H](CCC(=O)O)NC(=O)[C@H](CO)NC(=O)[C@@H]1CCCN1C(=O)[C@H](CCC(=O)O)NC(=O)CCCCCCCCCCCCCCCCC(=O)O)[C@@H](C)O)C(C)C)C(=O)N[C@@H](C)C(=O)N[C@H](C(=O)N[C@@H](CC(C)C)C(=O)N1CCC[C@H]1C(=O)N[C@@H](CCCNC(=N)N)C(=O)N[C@H](C(=O)N[C@@H](CCC(=O)O)C(=O)N[C@H](C(=O)NCC(=O)N1CCC[C@H]1C(=O)N[C@@H](CCC(=O)O)C(=O)N[C@@H](CO)C(=O)N1CCC[C@H]1C(N)=O)[C@@H](C)O)[C@@H](C)O)[C@@H](C)O
Take B5: in experiment [1], the “hAmylin-R funct. EC50 (pM)” value came to 8 pM. In addition, the “hCTR funct. EC50 (pM)” value in experiment [2] amounted to 7 pM.

B6: [N-terminal(C18 diacid), 9L, 10A]mimylin (peptide)
peptide: {C18 diacid}-EASELSTALAGRLSAELHELATLPRTETGPESP-NH2
SMILES: CC(C)C[C@H](NC(=O)[C@H](C)NC(=O)[C@@H](NC(=O)[C@H](CO)NC(=O)[C@H](CC(C)C)NC(=O)[C@H](CCC(=O)O)NC(=O)[C@H](CO)NC(=O)[C@H](C)NC(=O)[C@H](CCC(=O)O)NC(=O)CCCCCCCCCCCCCCCCC(=O)O)[C@@H](C)O)C(=O)N[C@@H](C)C(=O)NCC(=O)N[C@@H](CCCNC(=N)N)C(=O)N[C@@H](CC(C)C)C(=O)N[C@@H](CO)C(=O)N[C@@H](C)C(=O)N[C@@H](CCC(=O)O)C(=O)N[C@@H](CC(C)C)C(=O)N[C@@H](Cc1c[nH]cn1)C(=O)N[C@@H](CCC(=O)O)C(=O)N[C@@H](CC(C)C)C(=O)N[C@@H](C)C(=O)N[C@H](C(=O)N[C@@H](CC(C)C)C(=O)N1CCC[C@H]1C(=O)N[C@@H](CCCNC(=N)N)C(=O)N[C@H](C(=O)N[C@@H](CCC(=O)O)C(=O)N[C@H](C(=O)NCC(=O)N1CCC[C@H]1C(=O)N[C@@H](CCC(=O)O)C(=O)N[C@@H](CO)C(=O)N1CCC[C@H]1C(N)=O)[C@@H](C)O)[C@@H](C)O)[C@@H](C)O
As to B6, the “hAmylin-R funct. EC50 (pM)” value in experiment [1] was 8 pM. For the same molecule, the “hCTR funct. EC50 (pM)” value in experiment [2] is 4 pM.

B7: [N-terminal(C18 diacid), 3P, 9V]mimylin (peptide)
peptide: {C18 diacid}-EAPELSTAVLGRLSAELHELATLPRTETGPESP-NH2
SMILES: CC(C)C[C@H](NC(=O)[C@H](CCC(=O)O)NC(=O)[C@H](Cc1c[nH]cn1)NC(=O)[C@H](CC(C)C)NC(=O)[C@H](CCC(=O)O)NC(=O)[C@H](C)NC(=O)[C@H](CO)NC(=O)[C@H](CC(C)C)NC(=O)[C@H](CCCNC(=N)N)NC(=O)CNC(=O)[C@H](CC(C)C)NC(=O)[C@@H](NC(=O)[C@H](C)NC(=O)[C@@H](NC(=O)[C@H](CO)NC(=O)[C@H](CC(C)C)NC(=O)[C@H](CCC(=O)O)NC(=O)[C@@H]1CCCN1C(=O)[C@H](C)NC(=O)[C@H](CCC(=O)O)NC(=O)CCCCCCCCCCCCCCCCC(=O)O)[C@@H](C)O)C(C)C)C(=O)N[C@@H](C)C(=O)N[C@H](C(=O)N[C@@H](CC(C)C)C(=O)N1CCC[C@H]1C(=O)N[C@@H](CCCNC(=N)N)C(=O)N[C@H](C(=O)N[C@@H](CCC(=O)O)C(=O)N[C@H](C(=O)NCC(=O)N1CCC[C@H]1C(=O)N[C@@H](CCC(=O)O)C(=O)N[C@@H](CO)C(=O)N1CCC[C@H]1C(N)=O)[C@@H](C)O)[C@@H](C)O)[C@@H](C)O
Take B7: the “hAmylin-R funct. EC50 (pM)” value in experiment [1] turned out to be 10 pM. Moreover, the “hCTR funct. EC50 (pM)” value in experiment [2] was 7 pM.

These data come from patent US20160272683A1 (Novo Nordisk, published 2016).
